Assay results as given in paper PMC11224109, “Synthesis and preclinical evaluation of novel ^18F-vancomycin-based tracers for the detection of bacterial infections using positron emission tomography” (European Journal of Nuclear Medicine and Molecular Imaging, 2024).

Columns and labels:
[1] = Distribution coefficient LogD7.4, shake-flask n-octanol/PBS; type: physicochemical; conditions: shake-flask n-octanol/PBS pH 7.4, 500 µL each, 10 µL tracer in saline, vortexed 30 s, shaken 15 min, gamma counter, mean ± SD
Protocol: The tracer distribution coefficient in n-octanol/PBS pH 7.4 (LogD7.4) was determined using a shake-flask methodology. To an Eppendorf tube containing 500 µL n-octanol and 500 µL PBS, 10 µL tracer solution in saline was added. The vial was vortexed for 30 s and placed on an Eppendorf shaker for 15 min. After incubation, layers were separated by centrifugation (1 min at 10.000 rpm) and a fraction of the n-octanol layer was pipetted off. To minimize contamination of the bottom layer with the n-octanol layer, the bottom PBS layer was collected by puncturing the bottom of the Eppendorf tube with a 22G needle and aspirating a fraction of the PBS layer. Collected fractions were weighted to correct for collected volume and subsequently measured on a calibrated gamma counter and corrected for decay. LogD7.4 was calculated as [drawing 1] .

[2] = Summary of tracer stability in vitro and in vivo
Protocol: Stability of the tracers was determined in PBS and human plasma. In a typical experiment, 1 MBq of radioactivity (10–20 µL) was added to 250 µL of PBS or human plasma. Samples were heated to 37 °C on a shaker and sampled at fixed intervals. For samples containing human plasma, protein was precipitated using two volumes of cold MeCN. Precipitated samples were briefly centrifuged to pellet the insoluble fraction and supernatant was used for stability assessment. Supernatant (1 µL) was loaded on a TLC plate and imaged using BAS-IP MS 2025 E plates (Fujifilm, Tokyo, Japan) on an Amersham Typhoon Biomolecular Imager (GE Healthcare Bio-Sciences Corp, Chicago, United States) equipped with a phosphor imaging stage. [^18F]BODIPY-FL-vancomycin has an Rf of 0.68 (petroleum ether/MeOH 3:1), [^18F]FB-vancomycin has an Rf of 0.66 (2 M NaOAc/MeOH 5:1). For [^18F]PQ-VE1-vancomycin, conditions described in [44] were used.

[3] = Biodistribution in vivo and PET in healthy mice; conditions: in vivo; for tissue uptake at 0.5 h / tissue uptake at 1 h: male, C57BL/6, mouse, 2 MBq, total radioactivity, Biodistribution, healthy male C57BL/6 mice, penile vein injection, gamma counter, mean of n = 3; for tissue uptake at 0.5 h: 30 min; for tissue uptake at 1 h: 60 min
Protocol: All murine experiments were approved by the Animal Care and Use Committee of the University of Groningen under license protocol number 2114768-01-001. In vivo biodistribution was performed in male C57BL/6 mice (age 8 weeks, 25 g). Per tracer, the animals were divided in three groups based on the tracer distribution times (30 min, 60 min, and 90 min). […] Each experimental arm (i.e. time point) consisted of three animals. […] Tracer was administered at t = 0 via penile vein injection (2.0 ± 0.9 MBq in 100 µL 0.9% saline solution, Supplemental Table 2). After tracer administration, the animals were transferred to a Siemens Focus 220 microPET small animal scanner (Siemens, Munich, Germany) and scanned for the designated time, followed by a transmission scan of 10 min for attenuation correction. PET data were normalized and corrected for decay, after which the PET data were reconstructed using OSEM2D-Z1-SC-256. The PET data frames used for reconstruction were: 6 × 10 s, 4 × 30 s, 2 × 60 s, 120 s, 180 s, 4 × 300 s, 3 × 600 s, 1200 s or until the designated scan time was reached, taking into account a 10-min transmission scan following the emission scan. Next, animals were terminated, and organs harvested to assay biodistribution in a calibrated gamma counter (Wizard2, Perkin Elmer, Waltham, United States).

In the case of `CC(C)C[C@H](C(=O)N[C@H]1C(=O)N[C@@H](CC(N)=O)C(=O)N[C@H]2C(=O)N[C@H]3C(=O)N[C@H](C(=O)N[C@H](C(=O)O)c4cc(O)cc(O)c4-c4cc3ccc4O)[C@H](O)c3ccc(c(Cl)c3)Oc3cc2cc(c3O[C@@H]2O[C@H](CO)[C@@H](O)[C@H](O)[C@H]2O[C@H]2C[C@](C)(N)[C@H](O)[C@H](C)O2)Oc2ccc(cc2Cl)[C@H]1O)N(C)C(=O)c1ccc(F)cc1` [[^18F]FB-vancomycin], the LogD7.4 [1] is reported as -0.96 ± 0.03 (n = 12), the Stability [2] is reported as “Rapidly degraded in vitro and in vivo” and the tissue uptake at 0.5 h ([3]; iv, Bladder) is reported as 21.8 %ID/g. It also gave a tissue uptake at 1 h ([3]; iv, Bladder) of 18.5 %ID/g, a tissue uptake at 0.5 h ([3]; iv, Bone) of 0.06 %ID/g and a tissue uptake at 1 h ([3]; iv, Bone) of 0.04 %ID/g. The tissue uptake at 0.5 h ([3]; iv, Brain) was 0.05 %ID/g, the tissue uptake at 1 h ([3]; iv, Brain) was 0.05 %ID/g and the tissue uptake at 0.5 h ([3]; iv, Fat) was 0.54 %ID/g. For the same compound, the tissue uptake at 1 h ([3]; iv, Fat) was 0.26 %ID/g, the tissue uptake at 0.5 h ([3]; iv, Heart) was 0.11 %ID/g and the tissue uptake at 1 h ([3]; iv, Heart) was 0.22 %ID/g. For the same compound, the tissue uptake at 0.5 h ([3]; iv, Kidneys) was 1.01 %ID/g, the tissue uptake at 1 h ([3]; iv, Kidneys) was 0.45 %ID/g and the tissue uptake at 0.5 h ([3]; iv, Large intestine) was 0.25 %ID/g. It also gave a tissue uptake at 1 h ([3]; iv, Large intestine) of 0.37 %ID/g, a tissue uptake at 0.5 h ([3]; iv, Liver) of 0.15 %ID/g and a tissue uptake at 1 h ([3]; iv, Liver) of 0.1 %ID/g. The tissue uptake at 0.5 h ([3]; iv, Lungs) was 0.2 %ID/g, the tissue uptake at 1 h ([3]; iv, Lungs) was 0.14 %ID/g and the tissue uptake at 0.5 h ([3]; iv, Muscle) was 0.14 %ID/g. It also gave a tissue uptake at 1 h ([3]; iv, Muscle) of 0.12 %ID/g, a tissue uptake at 0.5 h ([3]; iv, Plasma) of 0.29 %ID/g and a tissue uptake at 1 h ([3]; iv, Plasma) of 0.15 %ID/g. It also gave a tissue uptake at 0.5 h ([3]; iv, Small intestine) of 0.3 %ID/g, a tissue uptake at 1 h ([3]; iv, Small intestine) of 0.19 %ID/g and a tissue uptake at 0.5 h ([3]; iv, Spleen) of 0.14 %ID/g. The tissue uptake at 1 h ([3]; iv, Spleen) was 0.09 %ID/g, the tissue uptake at 0.5 h ([3]; iv, Stomach) was 0.1 %ID/g and the tissue uptake at 1 h ([3]; iv, Stomach) was 0.21 %ID/g. For the same compound, the tissue uptake at 0.5 h ([3]; iv, Whole blood) was 0.2 %ID/g, the tissue uptake at 1 h ([3]; iv, Whole blood) was 0.1 %ID/g and the Accumulation ([3]; mouse) was “No accumulation in tissues, only in urine”. For the same compound, the Clearance ([3]; mouse) was “Rapid renal clearance” and the In vivo stability ([3]; mouse, iv) was “poor in vivo stability”.
